Reference: patent publication US20090060916A1 (published 2009)

Columns and labels:
[1] = molecular target: T1, human IL-13 (human, UniProt P35225 35-146, biotinylated on the Biacore chip); assay: IL-13 sandwich ELISA, competition with coating antibody
T1 construct: also called hIL-13; recombinant human IL-13
Method: A MAXISORP™ plate (high protein binding ELISA plate, Nunc, Denmark) was coated overnight with 2.5 μg/ml coating antibody (Module Set, Bender MedSystems, Vienna, Austria), then washed once with 0.05% (v/v) Tween 20 in PBS before blocking with 0.5% (w/v) BSA 0.05% (v/v) Tween 20 in PBS. […] The plate was then incubated with TMB substrate (KPL, Gaithersburg, USA), and the reaction was stopped by the addition of HCl and the absorbance read at 450 nm.

[2] = molecular target: T1, human IL-13; assay: cell-based or functional assay
[3] = molecular target: T1, human IL-13; assay: IL-13 BIAcore binding assay

T1 sequence (P35225 35-146 limits assumed): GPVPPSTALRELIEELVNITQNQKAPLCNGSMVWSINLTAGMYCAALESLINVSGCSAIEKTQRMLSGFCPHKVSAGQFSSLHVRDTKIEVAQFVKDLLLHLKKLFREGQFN

B1: DOM10-276-15 (other)
VH: EVQLLESGGGLVQPGGSLRLSCAASGFTFRDYEMDWVRQAPGKGLEWVSSISPNGSETNYADSVKGRFTISRDNSKNTLYLQMNSLRAEDTAVYYCAKAYTSFDYWGQGTLVTVSS
notes: VH dAb
Question: Which results are given for B1?
Answer: IC50 [1]: 100 nM; IC50, IL-13 cell binding assay (so in the source) [2]: 90 nM; Kd [3]: 1.5 nM
